Values joined by “and” are separate entries in the source; they are usually repeats but may differ in a detail not shown here. Equal entries are not always repeated.
Tests used:
[1] = biological target: the molecule itself; assay: spatial intensity distribution analysis (SpIDA) of confocal images; basolateral membrane of intact cells treated with antagonist for 90 min at 37 °C (SB242084 50 nM, SB243213 50 nM or RS102221 100 nM); one-population model; QB against monomeric P-M-A206K eGFP
[2] = biological target: the molecule itself; assay: spatial intensity distribution analysis (SpIDA) of confocal images; basolateral membrane of intact cells induced with varying doxycycline, not treated with ligand (also vehicle, and after washout of antagonists with 60 min recovery); one-population model; QB against monomeric P-M-A206K eGFP

B1: human 5-HT2C receptor fused at its carboxyl terminus to A206K eGFP (5-HT2C-A206K eGFP) (receptor, UniProt P28335 33-458, looked up)
chain: IVTDIFNTSDGGRFKFPDGVQNWPALSIVIIIIMTIGGNILVIMAVSMEKKLHNATNYFLMSLAIADMLVGLLVMPLSLLAILYDYVWPLPRYLCPVWISLDVLFSTASIMHLCAISLDRYVAIRNPIEHSRFNSRTKAIMKIAIVWAISIGVSVPIPVIGLRDEEKVFVNNTTCVLNDPNFVLIGSFVAFFIPLTIMVITYCLTIYVLRRQALMLLHGHTEEPPGLSLDFLKCCKRNTAEEENSANPNQDQNARRRKKKERRPRGTMQAINNERKASKVLGIVFFVFLIMWCPFFITNILSVLCEKSCNQKLMEKLLNVFVWIGYVCSGINPLVYTLFNKIYRRAFSNYLRCNYKVEKKPPVRQIPRVAATALSGRELNVNIYRHTNEPVIEKASDNEPGIEMQVENLELPVNPSSVVSERISSV
notes: serotonin 5-hydroxytryptamine 2C (5-HT2C) receptor, human; construct in pEGFPN1, a gift of Dr. K. Herrick-Davis, subcloned into pcDNA5/FRT/TO; also called 5-HT2C-eGFP; serotonin 5-hydroxytryptamine 2C receptor; not shown: A206K eGFP, C-terminal, kept
Question: How did the “average quantal brightness relative to monomeric P-M-A206K eGFP, after SB242084 (50 nM, 90 min)” value [1] turn out when B1 was run?
Answer: 1.46 fold

Question: And the “average quantal brightness relative to monomeric P-M-A206K eGFP” value [2]?
Answer: 1.85 times

Question: What about the “stoichiometry N” value [2] of the same protein?
Answer: 2 and 4

From publication PMC4432300, “Regulation of Oligomeric Organization of the Serotonin 5-Hydroxytryptamine 2C (5-HT2C) Receptor Observed by Spatial Intensity Distribution Analysis*” (The Journal of Biological Chemistry, 2015)
